Data published in the nanobody polyreactivity screen of Harvey et al. (2022).

Experiment: yeast display, Sf9 membrane polyspecificity reagent, FACS + sequencing; frameworks hold sequencing errors
In short: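 Using colony PCR, genes from sorted yeast display clones were amplified, then sequenced on MiSeq at 2 × 250 and filtered by CDR length. The clones had been stained with 10% biotinylated, detergent-solubilized Sf9 membrane reagent for 1 hour at 4 °C and sorted by FACS into low and high (top ~1%) gates on anti-HA and streptavidin fluorescence. Polyreactivity labels come from the gate of origin.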

Sequence | polyreactivity (PSR sort gate)
QVQLVESGGGLVQAGGSLRLSCAASGSTFPPYGMGWYRQAPGKERELVASITSGGSTNYADSVKGRFTISRDNAKNTVYLQMNSLKPEDTAVYYCNADLHSHYDYWGQGTQVTVSS | low polyreactivity
QVQLVESGGGLVQAGGSLRLSCAASGSTFYRYAMGWYRQAPGKERELVAAINTGGSTNYADSVKGRFTISRDNAKNTVYLQMNSLKPEDTAVYYCAARFQYYRKYDYWGQGTQGTVSS | low polyreactivity
QVQLVESGGGVVQAGGSLRLSCAASGRIFIWYDMGWYRQAPGKERELVAAITQSDDITYYADSVKGRFTISRDNAKNTVYLQMNSLKPEDTAVYYCAARVFETSTPYGYWGQGTQVTVSS | low polyreactivity
QVQLVESGGGLVQAGGSLRLSCAASGRIIPRNAMGWYRQEPGKERELVAGISRGGSTYYADSVKGRFTISRDNAKNSVYLQMNSLKPEDTAVYYCAAAYQKSPITPNMDYWGQGTQVTVSS | low polyreactivity
QVQLVESGGGLVQAGGSLRLSCAASGRTFGYYAMGWYRQAPGNERELVASISQSGGRTYYADSVKGRFTISRDNAKNTVYLQMNSLKPVDTAVYLCNAVYYRRTGYEYWGQGSQVTVSS | high polyreactivity
QVQLVESGGGLAQAGGSLRLSCAASGRTFVTNAMGWYRQAPGKERELVAAISKSGGRTYYADSVKGRFTISRDNAKNTVYLQMNSLKPEDTAVYYCAADKRYLSYDYWGQGTQVTVSS | high polyreactivity
QVQLVESGGGLVQAGGSLRLSCAASGRTFAYNTMGWYRQAPGKEREFVAAIDSGDSTYYADSVKGRFTISRDNAKNTVYLQMNSLKPEDTAVYYCAARRYYGYDYWGQGTLVTVSS | high polyreactivity
QVQLVESGGGLVQAGGSLRLSCAASGITIKRYAMGWYRQAPGKEREFVATISQSGTSTYYADSVKGRFTISRDNAKTTVYLQMISLKPEDTAVYYCAADFIGYWYGYYSWGQGTQVTVSS | low polyreactivity
QVQIVESGGGVVQAGGSLRLICAASGSTFNPYAMGSYRQAPGKERELVAAIRGRSGRTYYADSVKGRFTISRDNAKNTVYLQMTSLIPEDTAVYYCAARFSEYRTHPSEVYYWGQGTQVTVSS | high polyreactivity
QVQLEESGGGLVQAGGSLRLSCAASGRIFYAYGIGWYRQAPVKERELVAAISSGDSTNYADSVKGRFTISRDNAKNTVYFQMNSLKPEDTAVYYCAKDGSPLQLTDPTHDYEYWGQGTQVTVSS | low polyreactivity
QVQLVESVGGLVQAGGSLRLSCAASGITFYYNAMGWSRQAPGKERELVAVITSGGSTNYADSVKGRFTISRDNAKNTVYLQMNSLKPEDTAVYYCATDKSYSSWSAQYDYWGQGTQVTVSS | low polyreactivity
QVQLVESGGGLVQAGGSLRLSCAASGITFRKYAMGWYRQAPGKERELVAGIRRGGSTYYADSVKGRFTISRDNAKNTVYLQMNSLKPEDTAVYYCATRARYKRIRYDYWGQGTQVTVSS | high polyreactivity
QVQLVESGGGLVQAGGSLRLSCAASGRNFYVYTMGWYRQAPGKERELVAAISWSGGSTHHADSVKGRFTISRDNAKNTVYLQMNSLKPEDTAVYYCNKGVVSRVAFEYWGQGTQVTVSS | low polyreactivity
QVQLVESCGGLVQAGGSLRLSCAASGRIFQTYAMGWYRQAPGKERELVASISWSGGSTYYADSVKGRFTILRDNAKNTVYLQMNSLKPEDTAVYYCAAVYYSTDYYFWYDYWGQGTQVTVSS | low polyreactivity
QVQLVESGGRLVQAGGSLRLSCDASGRTFGKYALGWYRQAPGKEREFVATITRSGDSTYYADSVKGRFTISRDNAKNTVYLQMNSLKPEDTAVYNCAKDTYGVLSYFQVSREYWGQGTQVTVSS | low polyreactivity
QVQLVETGGGLVQAGGSLRLSCAASGFIFYNAMGWYRQAPGKERELVAAISSGGNTNYADSVKGRFTISRDNAKNTVYLQMNSLKPEDTAVYYCNAGLYQYEAWAYYIRYDYWGQGTQVTVSS | low polyreactivity
QVQLVESGGGLVHAGCSLRLSCAAYGRNFYRYAMGWYRQAPGKERALVAAISGSVGSTYADTEKGRFTSSRDNAKNTVYLQMNSLKPEDTAVYYCARESYRRYGAYDYWGQGTQVTESS | low polyreactivity
QVQLVESGGGLVQAGGSLRLSCAPSGIILGYYAMGWYRQAPGKERELVAAISSGGRTYYADSVKGRFTISRDNAKNTVYLQMNSLKPEDTAVYYCAADDTRGREEYDYWGQGTQVTVSS | high polyreactivity
QVQLLESGGGLVQAGGSLRLSCAASGSTFASYAMGWYRQAPGKETELVAAITRTGSTYYADSVKGRFTISRDNAKNTVYLQMNSLKPEDTAVYYCAKLWIGGYKYYYWGQGTQVTVSS | high polyreactivity
QVQLVESGGGLVQAGGSLRLSCAASGRIFGYYAMGWYRQAPGKERELVAAISYSGGSTYYADSVKGRFTISRDNAKYTVFLQMNSLKPEDTAVYYCNKVYSIRGYWGQGTQVTVSS | high polyreactivity
QVQLVESGGGLVQAGGSLRLSCAASGHTLAVNAKGWYRQATGKERELVAAITRSGVTTSYADSVKGRFTISRDNAKNTVYLQMNSLKPEDTAVYYCAAQLDASYLTGGWRRHYNYWGQGTQVTVSS | low polyreactivity
QVQLEESGGGLVQAGGSLRLSCAASGFICKRYARGWYRQAPGKERELVAAITTSGGRTYYADSVKGRFTISRDNAKNTVYLQMNSLIPEDTAVYYCAAAQPGTNAYRVGSWGQGTQVTVSS | high polyreactivity

Sequence | polyreactivity (PSR sort gate)
QVQLVETGGGLVQAGGSLRLSCAATGLIFYSYPMGWYRQAPGKERELVAALNGGGGSTYYADSVKGRFTISRDNAKNTVYLQMKSLKPEDTAVYYCAADLYNRGRGSSQSYRTGYDYWGQGTQVTVSS | high polyreactivity
QVQLVESGGGLVQAGGSLRLSCAASGRTFPPYAMGWYRQAPGKERELVAANSWSGGSTYYADSVKGRFTISRDNAKNTVYLQMNSLKPEDTAVYYCAKATRDRGRYYYWGQGTQVTVSS | high polyreactivity
QVQLVESGGGLVQAGGSLRLSCAASGRTLEDYVMGWYRQAPGKERELVAAIYWSGVSTYYADSVKGRFTISRDNAKNTVYLQMNSMKPEDTAVYYCAKDSTADELTGFDYWGQGTQVTVSS | low polyreactivity
QVQLVESGGGLVQAGGSLRLSCAASGFIFGNYPMGWYRQAPGKQRELVAAITSGGNTNYADSVKGRFTISRDNAKNTVYLQMNSLKPEDTAVYYCAADRNLYWVFSPNETEDYWGQGTQVTVSS | low polyreactivity
QVQLVESGGGLVQAGGSLRLSCAASGSIFIVNAMGWYRQAPGKERELVAAITWSGGNTYYADSVKGRFTISRDNAKNTVYLQMNSLKPEDTAVYYCNSYWRGAFDYWGQGTQVTVSS | high polyreactivity
QVQLGESGGGLVQAGGSLRLSCAASGRIFYLNAMGWYRQAPGKERELVAVITGNAGCTYYADSVKGRFTISRDHAKNTVYLQMNSLKPEDTAVYYCNALRLVPWSDALYDYWGQGTQVTVSS | low polyreactivity
QVQLVESGGGLVQAGGSLRLTCAASGSIFGNNAMGWYRQATGKERELVAVITDGGNTYYADSVKGRFTISRDNAKNTVYLQMNSLKPEDTAVYYCNAEWWGDSVYWGQGTQVTVSS | low polyreactivity
QVQLVETGGGLLQAGGSLRLSCAASGFTFDFYAMGWYRQAPGKERELVAAINWSGSSTYYADSVKGRFTISRDNAKNTVYLQMNSLKPEDTAVYYCAAQVYYTLFPDVYTMYYWGQGTQVTVSS | high polyreactivity
QVRLVESGGGLVQAGGSLRLSCAASGSTFKTYAMGWYRQAPGIERELVAAISAGGGSTYYADSVKGRFTISRDNAKNTVYLQMNSLKPEDTAVYYCAAAYIYAGWDYEYGGQGTQVTVSS | low polyreactivity
QVQLVESGGGLVQAGGSLRLSCAASGSIFPSYAMGWYRQAPGKERELVAAISVSGGSTYYADSVKGRFTISRDTAKNTVYLQMNSLKPEDTAVYYCAAQHGYPRYYYWGQGTQVTVSS | high polyreactivity
QVQLVESGGALVQAGGSLRLSCAASGSTIRDYAMGWYRQAPRKERELVAVIDNSGGRTYYADSVKGRFTISRDNAKNTVYLQMNSLKPEDTAVYYCNAYAYPFRGGYWGQGTQVTVSS | high polyreactivity
QVQLVESGGGLVQAGGSLRLSCAASGFIFGRYAMGWYRPAPGKERELVAAITASGGRTYYADSVKGRFTISRDNAKNTVYIQMNSLKPEDTAVYYCNTPSLWSGEDYWGQGTQVTVSS | low polyreactivity
QVQLVESGGGLVQAGGSLRLSCAASGSTFLVNAMGLYRQAPGKEREFVAAITGNAGSTYYADSVKGRFTISRDNAKITVYLQMNSLIPEDTAVYYCARTRRTPRGYLDFSLREYDYWGQGTQVTVSS | low polyreactivity
QVQLVESGGGLVQAGGSLRLSCAASGRTFWKNTMGWSRQAPGKERELVAVISSGGVSTSYADSVKGRFTISRDNAKNTVYLQMNSLKPEDTAVYYCAADGYYIGPYDYWGQGTQVTVSS | low polyreactivity
QVQLVESGGGLVQAGGSLRLSCAASGITFWRNAMGWYRQAPGKESELVAAISWSVGRTYYADSVKGRFTISRDNAKNTVYLQMNSLKPEDTAFYYCIARWRSGPRAYDYWGQGTQVSVSS | high polyreactivity
QVQLVESGGGLVQAGGSLRLSCAASGGIFRYNAMGWYRQAPGKERELVAAISYRGGSTYYADSVKGRFTISRDNAKNTVYLQMNSLKPEDTAVYYCAAVYYQDKRGDYWGQGTQVTVSS | high polyreactivity
QVQLVESGVGLVQAGGSLRLSCAASGSIFRYYAMGWYRQAPGKEREFVADITWSGTSTYYADSVKGRFTISRDNAKNTVYFQMNSLKPEDTAVFYCNKYRSYWSGPSYWREYDYWGQGTQVTVSS | high polyreactivity
QVQLVESGGGLVQAGGSRRLSCAASGSTFSSYAKGWYRQAPGQERELVAAISSSGSRTYYADSVKGRFTISRDNAKNTVYLQMNSLKPEDTAVYYCAADYYYNTKLDYWGQGSQVTVSS | high polyreactivity
QVQLVESGGGLVQAGGSLRLSCAASGSPFRRYAMGWYRQAPGTERELVAAISWRGGSTRYADSVKGRFTLSRDNAKNTVYLQMNSLKPEDTAVYYCAALGSYGNPPSYNYWGQGTQVTVSS | high polyreactivity
QVQLVESGGGLVQAGGSLRLSCAASGSIFDLNAMGWYRQAPGKERELVAAISKSGGSTYYADSVKGRFTISRDNAKNTVYLQMNSLKPEDTAVYYCAARYHYPGNWYNYWGQGTQVTVSS | low polyreactivity
QVQLVESGGGLVQAGGSLRLSCAASGSIFIYNVMGWYRPAPGKERELVATSRGSGGSTYYADSVKGRFTISRDTAKNTVYLHMNSLKPEDTAVYFCCRRDYPYQWGRAYNYWGQGTQVTVSS | high polyreactivity
